Legend:
[1] = TZM-bl pseudovirus neutralization; details: glycan lost; control: wild-type CAP45
[2] = TZM-bl pseudovirus neutralization, plateau; details: control: CAP45 pseudovirus grown normally in 293T

Substance | other: neutralisation sensitivity [1] | other: neutralisation sensitivity ([2]; glycan changed form) | further results
HIV-1 envelope glycoprotein (Env, gp160) CAP45: N230D | no change | – | –
HIV-1 envelope glycoprotein (Env, gp160) CAP45: N276A | abolishes | – | –
HIV-1 envelope glycoprotein (Env, gp160) CAP45: N276D | decreases | – | –
HIV-1 envelope glycoprotein (Env, gp160) CAP45: swainsonine | – | no change | –
HIV-1 envelope glycoprotein (Env, gp160) CAP45: N611D | decreases | – | –
HIV-1 envelope glycoprotein (Env, gp160) CAP45: 293S GnTI(-/-) cells | – | no change | –
HIV-1 envelope glycoprotein (Env, gp160) CAP45: benzyl 2-acetamido-2-deoxy-α-D-galactopyranoside | – | – | other: neutralisation sensitivity ([2]; glycan lost): no change
HIV-1 envelope glycoprotein (Env, gp160) CAP45: kifunensine | – | no change | –
